The source of these data is article PMC8800102.

Like-named read-outs stand apart in the source and are kept apart here.

Holding throughout (experiment): NMR titration
Data set [1] addresses T1, Sds3 capped Tudor domain (CTD) (mouse, UniProt Q8BR65 250-326).
T1 sequence: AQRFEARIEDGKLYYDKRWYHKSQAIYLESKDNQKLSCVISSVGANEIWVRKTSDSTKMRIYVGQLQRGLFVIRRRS

Data set [2] deals with T1, Sds3 capped Tudor domain (CTD). This is another data set of the same source.
The target is the same in data set [3]. The source holds these as a separate data set.

Consider TGTGGTT (ssDNA) [SELEX 7mer motif], for which the binding result in data set [1] was “no binding”.

As for TTGGGG (structured_DNA) [T2G4], the binding result in data set [2] is “binds”.

With AACUGUCG (ssRNA) [random RNA 8mer], the binding result in data set [3] is listed as “no binding”.
